In publication PMC2557009:

How the values were obtained:
[1] = molecular target: tubulin (sheep brain) (sheep); assay: co-sedimentation; 20 μM tubulin polymerised with 5 μM YB-1 in buffer M with 10% glycerol at 37°C to steady state, microtubules pelleted at 300 000 × g; SDS-PAGE, visual estimation on Coomassie stained gels; conditions: scale: mole of YB-1 per mole of tubulin heterodimer
[2] = molecular target: tubulin (sheep brain) (sheep); assay: co-sedimentation; 20 μM tubulin polymerised with 10 μM YB-1 in buffer M with 10% glycerol at 37°C to steady state, microtubules pelleted at 300 000 × g; SDS-PAGE, visual estimation on Coomassie stained gels; conditions: scale: mole of YB-1 per mole of tubulin heterodimer

Chain of YB-1 (Q28618 whole entry): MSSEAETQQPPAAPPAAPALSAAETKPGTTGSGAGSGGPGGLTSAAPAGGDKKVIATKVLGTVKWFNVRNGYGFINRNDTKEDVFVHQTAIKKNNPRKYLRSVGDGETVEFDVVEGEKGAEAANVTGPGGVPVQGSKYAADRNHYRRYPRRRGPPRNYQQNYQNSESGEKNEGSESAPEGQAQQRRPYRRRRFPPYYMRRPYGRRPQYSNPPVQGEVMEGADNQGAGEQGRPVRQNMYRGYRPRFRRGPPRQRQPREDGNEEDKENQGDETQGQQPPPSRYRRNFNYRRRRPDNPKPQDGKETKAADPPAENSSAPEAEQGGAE

“YB-1 (from UniProt Q28618 1-324) (natural protein)” gave a stoichiometry N [1] of 0.33 and a stoichiometry N [2] of 0.5.
